Source: article PMC10447426 (2023)

Key:
[1] = molecular target: T1, Fc fusion protein of mouse TNFR2 (mouse, UniProt P25119 23-258); assay: SPR
T1 chain: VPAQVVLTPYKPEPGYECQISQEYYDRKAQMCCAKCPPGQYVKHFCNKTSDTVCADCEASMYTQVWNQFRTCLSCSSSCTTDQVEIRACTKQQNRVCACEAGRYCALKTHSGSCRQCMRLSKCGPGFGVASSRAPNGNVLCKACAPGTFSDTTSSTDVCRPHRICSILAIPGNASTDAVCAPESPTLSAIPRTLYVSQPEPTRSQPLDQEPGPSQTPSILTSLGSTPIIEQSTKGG

[2] = molecular target: T1, Fc fusion protein of mouse TNFR2; assay: SPR; BIAcore X-100; Fc fusion proteins of mouse TNFR2 and mouse TNFR1 immobilised on CM5 chip by amine coupling; HBS-EP plus running buffer; single-cycle kinetics, five concentrations up to 100 nM, 2 min injection at 30 μl/min, 2 min dissociation; R2agoTNF fitted with a monovalent and scR2agoTNF-Fc with a bivalent model (avidity); n = 1

B1: R2agoTNF (ligand)
chain: VRSSSRTPSDMPVAHVVANPQAEGQLQWTNHGGNALLANGVELRDNQLVVPSEGLYLIYSQVLFSGQGCPSTHVLLTHTISRIAVSYQTPVNLLSAIRSPCQRETPEGAEANPWYEPIYLGGVFQLEPGDRLSAEINRPDYLNFPDSGEVYFGIIAL
koff [1]: 0.00277 s⁻¹ | Kd [2]: 1.75 nM
